Article PMC4036194

What was measured:
[1] = biological target: Full-length C24A β3 mutant with a carboxyl-terminal Myc epitope tag; assay: atomic force microscopy (AFM) imaging; Myc-tagged β3 (wild type or C24A) immunoisolated from tsA 201 detergent extract, diluted to ~40 pM, adsorbed to mica, imaged in air in tapping mode; molecular volumes of particles
[2] = biological target: mEos2-labeled acid-sensing ion channel hASIC (UniProt P78348); assay: fluorescence photoactivated localization microscopy (FPALM) with pair correlation analysis; mEos2 fusions on the plasma membrane of fixed, transfected HEK293 cells; TIRF-PALM; 30 regions of 1 μm^2 on five cells; proteins per cluster

mEos2-labeled acid-sensing ion channel hASIC (from UniProt P78348 1-528) (natural protein), sequence (P78348 whole entry): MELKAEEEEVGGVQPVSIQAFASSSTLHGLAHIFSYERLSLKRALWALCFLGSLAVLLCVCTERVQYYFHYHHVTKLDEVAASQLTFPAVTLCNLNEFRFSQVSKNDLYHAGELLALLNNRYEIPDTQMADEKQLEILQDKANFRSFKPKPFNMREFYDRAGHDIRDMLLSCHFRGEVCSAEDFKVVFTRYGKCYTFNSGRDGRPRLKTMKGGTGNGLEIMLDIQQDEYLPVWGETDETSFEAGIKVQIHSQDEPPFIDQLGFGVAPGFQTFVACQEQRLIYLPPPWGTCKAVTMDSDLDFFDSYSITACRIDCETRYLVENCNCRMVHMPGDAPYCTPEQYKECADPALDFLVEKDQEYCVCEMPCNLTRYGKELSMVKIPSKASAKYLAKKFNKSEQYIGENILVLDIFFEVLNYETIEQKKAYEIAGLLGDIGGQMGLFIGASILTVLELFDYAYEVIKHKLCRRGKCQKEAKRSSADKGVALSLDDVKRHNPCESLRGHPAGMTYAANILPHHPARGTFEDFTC

Substance | stoichiometry N [1] | stoichiometry N [2]
Full-length C24A β3 mutant with a carboxyl-terminal Myc epitope tag (natural protein) | 2 | 
mEos2-labeled acid-sensing ion channel hASIC (from UniProt P78348 1-528) (natural protein) |  | 3
